Data on eleven molecules can be found in patent US20030059436A1, “Band 3 antigenic peptides, malaria polypeptides and uses thereof” (priority 2001, published 2003).

The Kd is the free concentration of one partner at which half of the binding sites on the other are occupied at equilibrium, for simple one-to-one binding. The low end stands for a tighter complex, the high end for a looser complex.

Experiment [1] concerns P. falciparum intraerythrocytic growth. Put plainly: Growth inhibition assay by 3H-hypoxanthine incorporation method. The format is cell-based, Plasmodium falciparum. To be noted: 400 μM peptide; vs no peptide control. On the procedure: FIG. 2 depicts the inhibition of P. falciparum invasion into RBCs by human Band 3 peptides. […] Ectodomains are shown as boxes in the three models. (i) Overlapping 12 to 20-residue peptides shown in solid bars were prepared according to the putative ectodomain boundaries. (ii) Casey model (Fujinaga, J., et al., J Biol Chem 274:6626-6633, 1999). (iii) Reithmeier model (Popov, M., et al., J Biol Chem 272:18325-18332, 1997). (iv) Sherman model (Crandall, I., et al., Parasitology 108:257-267, 1994). […] Artemisinin (25 μM) and no peptide samples were positive and negative controls, respectively. FIG. 2C is a bar graph depicting of invasion inhibition assay by ^3H-hypoxanthine incorporation method. Effects of Band 3 peptides relative to the control sample (no peptide) are shown. Artemisinin (50 μM) and unrelated peptide derived from dematin were used as positive and negative control, respectively. FIG. 2D is a bar graph that depicts results of a growth inhibition assay by ^3H-hypoxanthine incorporation method. Effects of Band 3 peptides relative to the control sample (no peptide) are shown. In all inhibition assays, mean parasitemia from three experiments was calculated with standard error. DMSO background was corrected when necessary. Student's t test was used to compare with the control (no peptide). FIG. 2E is a table providing a summary of net charge and pI for Band 3 peptides.
To investigate the possible role of Band 3 as a host receptor in P. falciparum invasion into RBCs, we employed a peptide scanning strategy based on recent topology models of human erythroid Band 3 (FIG. 2A). Synthetic peptides were derived from the putative ectodomains of human RBC Band 3, and their ability to inhibit the P. falciparum (3D7 strain) invasion of human RBCs in culture was tested using both visual counting (Schlichtherle, M., et al., Methods in Malaria Research 2000) and ^3H-hypoxanthine incorporation (Chulay, J. D., et al., Exp Parasitol 55:138-146, 1983) methods. […] Inhibition by these four Band 3 peptides was concentration dependent (50, 200, 500, and 1000 μM peptides, data not shown).

Experiment [2] deals with P. falciparum (3D7 strain) merozoite proteins. Briefly: Blot overlay assay, merozoite proteins. The format is binding, Plasmodium falciparum. To be noted: biotinylated peptides each 400 μM. On the procedure:
(§1) Naturally released P. falciparum (3D7 strain) merozoites isolated as described (Mrema, J. E., et al., Exp Parasitol 54:285-295, 1982) and human RBC ghosts prepared as described (Dodge, J. T., et al., Arch Biochem Biophys 100:119-130, 1963) were subjected to SDS-PAGE. Proteins transferred onto nitrocellulose membrane were blocked overnight with 10% milk, 2% BSA, TBST (0.05%) at 4° C. After washing (4×) in TBST, the blot was incubated with biotinylated Band 3 peptides (each 400 μM) in TBST (0.025%), 10 mM phosphate buffer (pH 8.0), 60 mM KCl for 4 h at RT. After extensive washing, the blot was incubated with neutravidin-linked horseradish peroxidase (1:21,000, Pierce Chemical Co., Rockford, Ill.) in TBST (0.05%) with 2% BSA for 5-6 h at RT. After washing the blot with TBST (5×) and TBS (2×), bound peptides were visualized by the ECL method (Pierce Chemical Co.).
(§2) A binding study was carried out between the synthetic Band 3 peptides and merozoite proteins to understand the mechanism by which Band 3 peptides 5B, 5C, and 6A inhibit the parasite invasion of RBCs. P. falciparum merozoites essentially free of contaminating RBC membrane components were isolated (FIG. 3A), and total merozoite proteins were separated by SDS-PAGE (FIG. 3B). […] This was confirmed by Western blot using anti-spectrin and anti-Band 3 antibodies (not shown). […] Approximate molecular masses of these merozoite proteins are 175, 150, 125, 52, 48, 42, and 35 kDa (shown by arrowheads).

Another experiment has as its system human RBC ghost proteins. Briefly: Blot overlay assay, RBC ghost proteins. It counts as binding. As to conditions: biotinylated peptides each 400 μM. On the procedure:
as §1, §2

Another experiment relates to GST-MSP138. Briefly: Solution-binding assay, GST-MSP138 on beads. To be noted: for binding to GST-MSP138 on beads: 32P-labeled 5BC 21, 42, 84, 168 μM. Further details: species or system P. falciparum (FCB1 strain). The text has this:
(§3) MSP138 (SEQ ID NO:33), MSP142 (SEQ ID NO:34), and MSP119 (SEQ ID NO:35) genes were amplified from a P. falciparum (FCB1 strain) cDNA library (J. B. Dame) by PCR using the following primers: 5′-[…] (SEQ ID NO: 14, MSP138, sense, 3121-3133, Xhol), 5′-[…] (SEQ ID NO:15, MSP138, antisense, 4200-4193, NotI), 5′-[…] (SEQ ID NO:16, MSP142, sense, 4201-4218, XhoI), 5′-[…] (SEQ ID NO:17, MSP142, antisense, 5334-5321 NotI), 5′-[…]: (SEQ ID NO:18, MSP119, sense, 4993-5009 BamHI), 5′-[…] (SEQ ID NO:19, MSP119, antisense, 5334-5318, EcoRI). Similar cDNA libraries as well as CDNA pools are available to the public from MR4, ATCC (www.malaria.atcc.org).
(§4) Primers: 5′-[…] […] (SEQ ID NO:26, 6AB, antisense, 2640-2620, EcoRI).

The target of experiment [3] is mouse erythroid Band 3 protein on wild-type mouse RBCs (mouse) (UniProt P04919). Put plainly: 32P-MSP119 on intact Band 3 (-/-) mouse RBCs against untreated wild-type mouse RBCs in suspension.
For experiment [4], the target named is human erythroid Band 3 protein (Anion Exchanger 1) on human RBCs (human) (UniProt P02730). Put plainly: 32P-MSP119 on intact human RBCs in suspension; RBCs treated with neuraminidase, against untreated RBCs.
Experiment [5] deals with mouse erythroid Band 3 protein on wild-type mouse RBCs (mouse) (UniProt P04919). Put plainly: 32P-MSP119 on intact mouse RBCs in suspension; RBCs treated with neuraminidase, against untreated RBCs.
Experiment [6] has as its target human erythroid Band 3 protein (Anion Exchanger 1) on human RBCs (human) (UniProt P02730). Briefly: 32P-MSP119 on intact human RBCs in suspension; RBCs treated with chymotrypsin 10 min, against untreated RBCs.
For experiment [7] the target is unchanged. Put plainly: 32P-MSP119 on intact human RBCs in suspension; RBCs treated with chymotrypsin 40 min, against untreated RBCs.
Experiment [8] has as its target mouse erythroid Band 3 protein on wild-type mouse RBCs (mouse) (UniProt P04919). Put plainly: 32P-MSP119 on intact mouse RBCs in suspension; RBCs treated with chymotrypsin 40 min, against untreated RBCs.
For the next experiment, the target named is T1, GST-MSP142 (Plasmodium falciparum, UniProt P04933).
T1 construct: amino acids 1264-1639; made in house; host or cells: E. coli DH5α (pGEX6P-2)
Put plainly: Solution-binding assay, GST-MSP142 on beads. The arrangement: species or system P. falciparum (FCB1 strain).
Excerpt: as §3, §4

In experiment [9] the target is P. falciparum (3D7 strain) merozoite proteins (approximate molecular masses 175, 150, 125, 52, 48, 42, and 35 kDa). Put plainly: cell-based or functional assay.
The target in experiment [10] is T2, SV40 large T-antigen fused to GAL4 AD (pGADT7 vector), two-hybrid control (UniProt P03070 86-708).
T2 construct: Kit control; also called pGADT7-T
Briefly: yeast two-hybrid assay (positive control).

Experiment [11] deals with GST-MSP142 (P. falciparum FCB1 MSP1 42 kDa fragment as GST fusion protein) (Plasmodium falciparum (FCB1 strain)) [GST: P08515]. Put plainly: solution-binding assay, 32P-labeled peptide on GST fusion beads.
In experiment [12] the target is GST-MSP138 (P. falciparum FCB1 MSP1 38 kDa fragment as GST fusion protein, C-terminal truncated forms) (Plasmodium falciparum (FCB1 strain)) [GST: P08515]. Described as above.

Ends that are not written are not given here. * marks the point of attachment. Biotin = O=C1N[C@H]2[C@H](CS[C@H]2CCCCC(=O)*)N1

Sequence of human erythroid Band 3 protein (Anion Exchanger 1) on human RBCs (human) (P02730 whole entry, form in doubt): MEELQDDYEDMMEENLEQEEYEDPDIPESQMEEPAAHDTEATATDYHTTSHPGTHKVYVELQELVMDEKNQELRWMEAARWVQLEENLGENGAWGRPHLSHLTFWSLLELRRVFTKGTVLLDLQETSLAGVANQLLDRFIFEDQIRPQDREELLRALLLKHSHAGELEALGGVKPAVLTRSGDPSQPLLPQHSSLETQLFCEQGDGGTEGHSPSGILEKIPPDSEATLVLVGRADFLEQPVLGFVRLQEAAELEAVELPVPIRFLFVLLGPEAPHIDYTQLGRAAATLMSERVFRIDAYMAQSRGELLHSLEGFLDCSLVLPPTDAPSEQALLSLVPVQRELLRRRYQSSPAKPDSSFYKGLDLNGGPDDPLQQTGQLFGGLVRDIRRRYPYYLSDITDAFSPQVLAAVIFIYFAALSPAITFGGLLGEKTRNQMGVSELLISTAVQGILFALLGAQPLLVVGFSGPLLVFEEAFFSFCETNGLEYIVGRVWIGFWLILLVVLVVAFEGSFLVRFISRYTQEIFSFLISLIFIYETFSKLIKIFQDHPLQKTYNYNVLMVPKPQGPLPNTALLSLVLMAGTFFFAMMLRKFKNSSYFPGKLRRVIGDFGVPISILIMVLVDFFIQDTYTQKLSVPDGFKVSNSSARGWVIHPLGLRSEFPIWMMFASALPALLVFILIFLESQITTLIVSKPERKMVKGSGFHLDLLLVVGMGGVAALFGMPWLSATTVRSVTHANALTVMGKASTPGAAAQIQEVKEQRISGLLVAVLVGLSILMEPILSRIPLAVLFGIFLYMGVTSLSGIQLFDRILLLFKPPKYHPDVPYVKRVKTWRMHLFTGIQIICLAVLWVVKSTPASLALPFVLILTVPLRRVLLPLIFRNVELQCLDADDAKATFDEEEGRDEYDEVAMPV
Sequence of mouse erythroid Band 3 protein on wild-type mouse RBCs (mouse) (P04919 whole entry): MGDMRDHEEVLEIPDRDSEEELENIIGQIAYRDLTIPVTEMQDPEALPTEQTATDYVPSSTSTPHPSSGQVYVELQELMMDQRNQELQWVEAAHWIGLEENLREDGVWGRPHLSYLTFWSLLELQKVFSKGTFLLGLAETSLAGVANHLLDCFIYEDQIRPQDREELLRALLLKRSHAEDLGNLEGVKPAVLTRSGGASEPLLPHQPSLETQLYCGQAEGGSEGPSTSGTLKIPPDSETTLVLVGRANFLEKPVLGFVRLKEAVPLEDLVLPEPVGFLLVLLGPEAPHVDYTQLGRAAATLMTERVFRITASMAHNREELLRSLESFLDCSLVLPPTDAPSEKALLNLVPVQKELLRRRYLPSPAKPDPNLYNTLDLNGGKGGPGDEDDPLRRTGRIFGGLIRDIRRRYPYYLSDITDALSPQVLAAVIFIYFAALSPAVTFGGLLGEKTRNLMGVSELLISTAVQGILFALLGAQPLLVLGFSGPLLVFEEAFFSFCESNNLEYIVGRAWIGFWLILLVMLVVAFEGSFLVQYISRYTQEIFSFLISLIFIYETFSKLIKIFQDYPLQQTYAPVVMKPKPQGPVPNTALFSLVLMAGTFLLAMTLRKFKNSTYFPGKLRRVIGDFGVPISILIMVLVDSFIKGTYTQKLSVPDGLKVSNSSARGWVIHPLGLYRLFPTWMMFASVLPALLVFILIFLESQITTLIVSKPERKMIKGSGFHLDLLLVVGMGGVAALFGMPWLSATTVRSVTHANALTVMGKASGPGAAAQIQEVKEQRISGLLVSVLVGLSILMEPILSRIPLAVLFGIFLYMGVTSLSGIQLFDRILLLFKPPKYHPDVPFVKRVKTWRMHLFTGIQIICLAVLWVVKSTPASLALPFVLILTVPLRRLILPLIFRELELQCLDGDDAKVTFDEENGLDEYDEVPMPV
T1 sequence (P04933 1264-1639): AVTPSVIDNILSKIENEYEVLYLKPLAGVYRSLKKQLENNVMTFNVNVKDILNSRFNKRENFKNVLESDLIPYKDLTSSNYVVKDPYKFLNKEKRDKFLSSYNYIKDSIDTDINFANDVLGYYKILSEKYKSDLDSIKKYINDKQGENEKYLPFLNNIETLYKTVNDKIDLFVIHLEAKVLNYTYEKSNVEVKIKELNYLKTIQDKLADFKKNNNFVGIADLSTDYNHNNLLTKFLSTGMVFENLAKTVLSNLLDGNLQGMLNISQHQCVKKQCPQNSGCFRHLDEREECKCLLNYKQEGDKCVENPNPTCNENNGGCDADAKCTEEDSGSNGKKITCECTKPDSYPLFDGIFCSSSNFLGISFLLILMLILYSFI
T2 sequence (P03070 86-708 limits assumed): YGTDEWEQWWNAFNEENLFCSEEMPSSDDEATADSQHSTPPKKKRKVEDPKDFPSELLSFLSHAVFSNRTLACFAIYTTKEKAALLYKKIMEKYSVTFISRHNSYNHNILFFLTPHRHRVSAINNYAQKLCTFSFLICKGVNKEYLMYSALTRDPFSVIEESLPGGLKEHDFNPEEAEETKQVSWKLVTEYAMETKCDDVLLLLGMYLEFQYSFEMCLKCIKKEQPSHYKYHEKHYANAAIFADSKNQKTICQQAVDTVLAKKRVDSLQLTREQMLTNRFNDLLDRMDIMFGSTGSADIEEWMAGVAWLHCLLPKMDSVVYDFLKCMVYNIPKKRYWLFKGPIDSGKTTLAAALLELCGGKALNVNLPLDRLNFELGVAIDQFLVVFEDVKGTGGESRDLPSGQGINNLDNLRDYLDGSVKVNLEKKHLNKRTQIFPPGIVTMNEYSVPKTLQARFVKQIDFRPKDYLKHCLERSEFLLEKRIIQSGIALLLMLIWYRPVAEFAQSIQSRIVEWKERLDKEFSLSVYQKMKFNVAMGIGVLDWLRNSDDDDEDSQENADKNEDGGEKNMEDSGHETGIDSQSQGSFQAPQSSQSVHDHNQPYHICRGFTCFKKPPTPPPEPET
Sequence of GST-MSP138 (P. falciparum FCB1 MSP1 38 kDa fragment as GST fusion protein, C-terminal truncated forms) (Plasmodium falciparum (FCB1 strain)) [GST: P08515] (P08515 whole entry, the tested form may be a part): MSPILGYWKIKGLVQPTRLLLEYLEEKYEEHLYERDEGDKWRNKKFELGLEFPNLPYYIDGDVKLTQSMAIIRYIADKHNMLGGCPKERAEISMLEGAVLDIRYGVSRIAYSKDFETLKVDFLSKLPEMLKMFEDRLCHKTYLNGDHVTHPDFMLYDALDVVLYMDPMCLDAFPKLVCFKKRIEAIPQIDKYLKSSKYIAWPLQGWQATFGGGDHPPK
Sequence of GST-MSP142 (P. falciparum FCB1 MSP1 42 kDa fragment as GST fusion protein) (Plasmodium falciparum (FCB1 strain)) [GST: P08515] (P08515 whole entry, the tested form may be a part): as above

“2: Synthetic human Band 3 peptide, amino acid 477-491, N-terminal biotin tag (Biotin-SFCETNGLEYIVGRV; UniProt P02730 477-491, looked up, fragment) [Peptide 2]”: the “effect on intraerythrocytic growth of the parasite (3H-hypoxanthine uptake)” value in experiment [1] was “mild reduction in 3H-hypoxanthine uptake”. Further, the “binding to merozoite proteins, blot overlay” value (“binding to merozoite proteins” below) in [2] was “did not show significant binding”. In the experiment on human RBC ghost proteins, the “binding to RBC ghost proteins, blot overlay” value (“binding to RBC ghost proteins” for short) is reported as “non-specific bindings”.
For “3A: Synthetic human Band 3 peptide, amino acid 538-557, N-terminal biotin tag (Biotin-SKLIKIFQDHPLQKTYNYNV; UniProt P02730 538-557, looked up, fragment) [Peptide 3A]”, the “binding to merozoite proteins” value in [2] was “did not show significant binding”. The “binding to RBC ghost proteins” value in the experiment with human RBC ghost proteins is on record as “non-specific bindings”.
With “4A: Synthetic human Band 3 peptide, amino acid 623-642, N-terminal biotin tag (Biotin-FIQDTYTQKLSVPDGFKVSN; UniProt P02730 623-642, looked up, fragment) [Peptide 4A]”, in [2], the “binding to merozoite proteins” value is listed as “did not show significant binding”. In addition, the “binding to RBC ghost proteins” value in the experiment with human RBC ghost proteins is given as “non-specific bindings”.
With “5BC: Recombinant human Band 3 peptide, amino acid 731-761, expressed as GST or GAL4 DNA-BD fusion (SVTHANALTVMGKASTPGAAAQIQEVKEQRI; also: expressed as GST or GAL4 DNA-BD fusion) [Peptide 5BC]”, the “binding to GST-MSP138 on beads” value in the experiment on GST-MSP138 is “concentration-dependent manner”. The Kd at GST-MSP138 (32P-labeled peptide, pH 7.4, 25° C., 3.5 h, C-terminal truncated GST-MSP138) is 67 µM.
Regarding “32P-labeled MSP119 (P. falciparum FCB1 MSP1 19 kDa C-terminal fragment, GST removed with thrombin) (ligand)”, the reduction of radioactivity associated with Band 3 (-/-) mouse RBCs as compared to untreated wild-type mouse RBCs in experiment [3] is 72%. In addition, the increase in ability to bind MSP119 as compared to the untreated RBCs worked out at 52% in experiment [4] and 51% in experiment [5]. Besides, the reduction in ability to bind MSP119 as compared to the untreated RBCs came out at 30% in experiment [6], 37% in experiment [7] and 41% in experiment [8].
As for “GMPWLSATTVRSVTHANALTVMGKASTPGAAAQIQEVKEQRI (not fully specified) [Peptide 5ABC, Recombinant human Band 3 peptide, amino acid 720-761, expressed as GST or GAL4 DNA-BD fusion]”, the “binding to GST-MSP142 on beads” value with GST-MSP142 (32P-labeled 5ABC 10, 20, 40, 80 μM) is “concentration-dependent manner”. In addition, in the experiment with GST-MSP142 (32P-labeled peptide, pH 7.4, 25° C., 3.5 h), the Kd was found to be 36 µM. The “binding to GST-MSP138 on beads” value with GST-MSP138 is “specifically bound”.
As for “Human Band 3 peptide 5C (amino acid 742-761), synthetic with N-terminal biotin tag”, in [9], the IC50 values (50% inhibition in the parasite invasion of RBCs), 3H-hypoxanthine incorporation method is 591 µM.
As for “Human Band 3 peptide 6A (amino acid 807-826), synthetic with N-terminal biotin tag”, the IC50 values (50% inhibition in the parasite invasion of RBCs), 3H-hypoxanthine incorporation method in experiment [9] came out at 316 µM.

B1: p53 fused to GAL4 DNA-BD (pGBKT7 vector), two-hybrid control (other)
chain: MKLLSSIEQACDICRLKKLKCSKEKPKCAKCLKNNWECRYSPKTKRSPLTRAHLTEVESRLERLEQLFLLIFPREDLDMILKMDSLQDIKALLTGLFVQDNVNKDAVTDRLASVETDMPLTLRQHRISATSSSEESSNKGQRQLTVSPVTETPGPVAPAPATPWPLSSFVPSQKTYQGNYGFHLGFLQSGTAKSVMCTYSPPLNKLFCQLAKTCPVQLWVSATPPAGSRVRAMAIYKKSQHMTEVVRRCPHHERCSDGDGLAPPQHLIRVEGNLYPEYLEDRQTFRHSVVVPYEPPEAGSEYTTIHYKYMCNSSCMGGMNRRPILTIITLEDSSGNLLGRDSFEVRVCACPGRDRRTEEENFRKKEVLCPELPPGSAKRALPTCTSASPPQKKKPLDGEYFTLKIRGRKRFEMFRELNEALELKDAHATEESGDSRAHSSYLKTKKGQSTSRHKKTMVKKVGPDSD
notes: Kit control; also called pGBKT7-53
With B1, in experiment [10], the binding result is “binds”.
GMPWLSATTVRSVTHANALTVMGKASTPGAAAQIQEVKEQRI (peptide, not shown: small tags and cut ends, modifications not checked) [32P-labeled 5ABC (recombinant human Band 3 amino acid 720-761, GST removed with thrombin)] gave a dissociation constant Kd in [11] of 36 µM.
SVTHANALTVMGKASTPGAAAQIQEVKEQRI (peptide, not shown: small tags and cut ends, modifications not checked) [32P-labeled 5BC (recombinant human Band 3 amino acid 731-761, GST removed with thrombin)]: the Kd in experiment [12] came to 67 µM.
